From ChEMBL document CHEMBL5620400, “Design, synthesis, antiviral evaluation, and In silico studies of acrylamides targeting nsP2 from Chikungunya virus” (Eur J Med Chem, 2023) come the findings set out here.

One data set deals with Sindbis virus. Description: Antiviral activity against SINV infected african green monkey Vero cells assessed as inhibition of virus induced cytopathic effect at 100 uM measured after 48 hrs by microscopic imaging analysis. It counts as functional, organism-based. In general terms: Damage to the host cells serves as the signal in cytopathic effect assays.
In data set [1] the test system is O=C(/C=C/c1ccc(Cl)cc1Cl)Nc1ccccc1. The data set is described as follows: (§1) Binding affinity to CHIKV nsP2 assessed as Vmax (at I = 0) by measuring fluorescence by Lineweaver-Burk plot. The note with it: Chikungunya virus.
The test system of data set [2] is COc1ccccc1/C=C/C(=O)Nc1ccccc1. Described as §1. The settings on record: Chikungunya virus.
The subject of data set [3] is O=C(/C=C/c1ccc(Br)cc1)Nc1ccccc1. The description is as §1. The note with it: Chikungunya virus.
The subject of data set [4] is O=C(/C=C/c1ccc(C(F)(F)F)cc1)Nc1ccccc1. Described as §1. The note with it: Chikungunya virus.
In data set [5] the test system is O=C(/C=C/c1ccc(Cl)cc1Cl)Nc1ccccc1. The data set is described as follows: (§2) Binding affinity to CHIKV nsP2 assessed as Km by measuring fluorescence by multimode microplate reader. The note with it: Chikungunya virus.
Data set [6] relates to COc1ccccc1/C=C/C(=O)Nc1ccccc1. The description is as §2. The note with it: Chikungunya virus.
Data set [7] relates to O=C(/C=C/c1ccc(Br)cc1)Nc1ccccc1. The data set is described as §2. The settings on record: Chikungunya virus.
The subject of data set [8] is O=C(/C=C/c1ccc(C(F)(F)F)cc1)Nc1ccccc1. The description is as §2. The settings on record: Chikungunya virus.
Data set [9] deals with O=C(/C=C/c1ccc(Cl)cc1Cl)Nc1ccccc1. Description: (§3) Binding affinity to CHIKV nsP2 assessed as Vmax (at tested concentration) by measuring fluorescence by Lineweaver-Burk plot. The settings on record: Chikungunya virus.
Data set [10] deals with COc1ccccc1/C=C/C(=O)Nc1ccccc1. The description is as §3. The note with it: Chikungunya virus.
The subject of data set [11] is O=C(/C=C/c1ccc(Br)cc1)Nc1ccccc1. The data set is described as §3. The note with it: Chikungunya virus.
In data set [12] the test system is O=C(/C=C/c1ccc(C(F)(F)F)cc1)Nc1ccccc1. The description is as §3. The settings on record: Chikungunya virus.

Activity calls are given as the source filed them. The calls are words filed in the database; no cut-off is given here.

On to `O=C(/C=C/c1ccc(C(F)(F)F)cc1)Nc1ccccc1`, for which the result with Sindbis virus was Active.
The Km is the substrate concentration at which the rate is half of its maximum. In the case of “Polyprotein P1234 (Chikungunya virus (strain S27-African prototype) (CHIKV)), Q8JUX6”, the Vmax in data set [1] worked out at 0.84; in data set [2] it was 0.76; in data set [3], 0.73; in data set [4], 1.57; in data set [9], 0.83; in data set [10], 0.71. Further, the Vmax in data set [11] was 0.87; in [12], 1.58. Also, the Km amounted to 3.5 µM in data set [5], 4.9 µM in [6], 5.4 µM in data set [7] and 9.7 µM in data set [8].
Consider `O=C(/C=C/c1ccc(Cl)cc1Cl)Nc1ccccc1`, for which the outcome with Sindbis virus was Active.
On the same count and under the same terms, to `O=C(/C=C/c1ccc(Br)cc1)Nc1ccccc1` belongs “Active”; to `COc1ccccc1/C=C/C(=O)Nc1ccccc1`, “Active”.
